# Source: patent US5385834
# Assays:
# [1] = target: T7 RNA polymerase (wild-type) (Bacteriophage T7) (UniProt P00573); settings: in vitro transcription, +/-0.003 vs T7 promoter; 80 nM enzyme
# [2] = target: T7 RNA polymerase mutant GP1(lys222) E222K (Bacteriophage T7) (UniProt P00573); settings: in vitro transcription, +/-0.008 vs T7 promoter; 40 nM enzyme; may be nonspecific initiation
substance,measurement,setting,value
T3 promoter plasmid pLM10,activity,[1],0.009 relative
same,activity,[2],0.027 relative
